# Patent publication US7052705 (dated 2006)
# Bridge positions count the residues as written; N and C are the ends. Ends that are not written are not given here.
# T1: VEGFR-2 (human, UniProt P35968)
# T1 chain: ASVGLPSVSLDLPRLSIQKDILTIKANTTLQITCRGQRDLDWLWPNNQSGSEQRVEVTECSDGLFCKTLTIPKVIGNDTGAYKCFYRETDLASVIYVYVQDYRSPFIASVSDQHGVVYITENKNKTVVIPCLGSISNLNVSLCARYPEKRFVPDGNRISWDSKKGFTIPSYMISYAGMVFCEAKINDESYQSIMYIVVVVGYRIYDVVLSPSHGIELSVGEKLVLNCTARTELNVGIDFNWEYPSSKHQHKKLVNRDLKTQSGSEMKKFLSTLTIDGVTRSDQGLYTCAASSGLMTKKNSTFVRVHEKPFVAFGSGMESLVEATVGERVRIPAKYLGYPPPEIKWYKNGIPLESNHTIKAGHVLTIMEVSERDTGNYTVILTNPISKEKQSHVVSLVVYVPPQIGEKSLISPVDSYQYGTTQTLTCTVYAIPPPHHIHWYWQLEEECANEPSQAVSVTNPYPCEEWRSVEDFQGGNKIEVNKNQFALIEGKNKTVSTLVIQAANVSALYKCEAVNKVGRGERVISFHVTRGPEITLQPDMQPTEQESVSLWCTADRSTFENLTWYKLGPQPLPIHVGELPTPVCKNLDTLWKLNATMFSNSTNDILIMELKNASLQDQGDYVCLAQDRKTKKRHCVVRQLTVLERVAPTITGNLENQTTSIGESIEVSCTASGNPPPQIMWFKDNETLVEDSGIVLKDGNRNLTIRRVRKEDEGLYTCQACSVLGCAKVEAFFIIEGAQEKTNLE
# Experiments:
# [1] = target: T1, VEGFR-2; experiment: competition, COS-1
# [2] = target: T2, VEGFR-2/NP-1 co-expressed (human, UniProt P35968); experiment: competition, COS-1
# [3] = target: T3, Neuropilin-1 (NP-1) (human, UniProt O14786); experiment: competition, Balb/c
# T3 sequence (O14786 22-923): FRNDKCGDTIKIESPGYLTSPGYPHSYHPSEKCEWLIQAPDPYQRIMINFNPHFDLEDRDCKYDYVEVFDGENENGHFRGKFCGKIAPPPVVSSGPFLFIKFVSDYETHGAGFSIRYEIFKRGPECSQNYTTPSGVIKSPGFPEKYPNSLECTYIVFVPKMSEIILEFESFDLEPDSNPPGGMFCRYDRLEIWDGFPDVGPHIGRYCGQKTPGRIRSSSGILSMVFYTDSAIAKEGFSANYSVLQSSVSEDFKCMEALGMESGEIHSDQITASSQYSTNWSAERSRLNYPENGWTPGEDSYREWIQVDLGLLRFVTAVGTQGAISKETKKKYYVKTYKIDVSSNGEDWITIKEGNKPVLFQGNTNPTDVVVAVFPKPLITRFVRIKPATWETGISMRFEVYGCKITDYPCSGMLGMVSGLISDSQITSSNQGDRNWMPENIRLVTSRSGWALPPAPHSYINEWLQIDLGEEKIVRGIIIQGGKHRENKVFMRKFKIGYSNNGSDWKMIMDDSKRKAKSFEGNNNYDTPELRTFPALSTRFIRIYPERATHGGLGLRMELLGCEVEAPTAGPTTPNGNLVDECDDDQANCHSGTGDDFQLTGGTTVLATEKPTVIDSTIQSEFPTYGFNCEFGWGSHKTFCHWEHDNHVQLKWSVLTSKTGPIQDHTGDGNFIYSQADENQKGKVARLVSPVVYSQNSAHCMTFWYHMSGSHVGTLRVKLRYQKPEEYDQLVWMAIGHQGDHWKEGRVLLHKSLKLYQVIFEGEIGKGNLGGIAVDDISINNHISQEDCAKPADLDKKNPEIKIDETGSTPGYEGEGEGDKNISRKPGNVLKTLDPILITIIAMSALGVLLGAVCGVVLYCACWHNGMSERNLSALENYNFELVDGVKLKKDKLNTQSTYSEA
# [4] = target: T2, VEGFR-2/NP-1 co-expressed; experiment: competition, Balb/c
# Target sequence in this assay (chain, as listed by the source, chain 2 of 2, one chain of several): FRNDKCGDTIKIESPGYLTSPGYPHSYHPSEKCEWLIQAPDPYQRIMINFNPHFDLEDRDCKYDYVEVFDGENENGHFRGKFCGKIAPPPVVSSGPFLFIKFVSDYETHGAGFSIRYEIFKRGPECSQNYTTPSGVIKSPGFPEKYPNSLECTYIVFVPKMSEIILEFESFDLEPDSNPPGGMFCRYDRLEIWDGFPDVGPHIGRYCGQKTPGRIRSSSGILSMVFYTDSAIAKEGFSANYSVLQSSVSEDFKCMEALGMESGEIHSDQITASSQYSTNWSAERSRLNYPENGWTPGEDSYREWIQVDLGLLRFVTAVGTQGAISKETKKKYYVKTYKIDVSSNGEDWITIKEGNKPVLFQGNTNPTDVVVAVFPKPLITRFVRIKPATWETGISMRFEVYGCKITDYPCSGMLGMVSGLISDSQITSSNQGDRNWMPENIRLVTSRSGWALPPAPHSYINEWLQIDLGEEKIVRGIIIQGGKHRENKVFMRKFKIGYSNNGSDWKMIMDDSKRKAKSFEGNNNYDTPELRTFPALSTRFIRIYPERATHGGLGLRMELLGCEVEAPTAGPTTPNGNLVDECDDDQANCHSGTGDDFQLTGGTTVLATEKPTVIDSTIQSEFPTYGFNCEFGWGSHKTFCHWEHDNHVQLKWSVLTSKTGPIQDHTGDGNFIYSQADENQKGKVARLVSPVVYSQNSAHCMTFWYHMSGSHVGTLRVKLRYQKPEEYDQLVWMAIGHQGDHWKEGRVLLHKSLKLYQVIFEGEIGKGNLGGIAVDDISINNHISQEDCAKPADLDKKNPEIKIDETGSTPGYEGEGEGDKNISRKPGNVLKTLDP
# [5] = target: T3, Neuropilin-1 (NP-1); experiment: competition, COS-1
# [6] = target: T3, Neuropilin-1 (NP-1); experiment: other, radioligand saturation COS-1
# [7] = target: T2, VEGFR-2/NP-1 co-expressed; experiment: competition, 125I-VEGF165
# [8] = target: T3, Neuropilin-1 (NP-1); experiment: competition, COS-1; remark: listed apart in the source
# [9] = target: T1, VEGFR-2; experiment: competition, COS-1 cells, 4C
Binder,binding result [1],further results
RRPKGRGKRRREKQRAAAKPRR [AS-4A],no binding,–
CAGRGARCREKQRPSDKPRR (disulfide 1-8) [P6V8-3NCS1-7CCA1A5],no binding,–
RRPKGRGKRAAAKQRPSDKPRR [AS-3],–,binding result [2]: no binding
"AGRGARAAEKQAPSDKPRR [P6V8-3NCSA1,5,7,8,12]",no binding,–
RREKQRPCDKPRR [P6V8-9N],no binding,–
AGRGARRREKQRPSDKPRR [P6V8-3NCSA1A5],no binding,–
RPSDKPRR [V8CS],no binding,–
KGRGKRRRECQRPSCKPRR (disulfide 10-15) [P6V8-3NCSC13C18],no binding,–
PKRSRRKGQPRPRGRREKRDRK [RAND1],no binding,–
KGAGARRREKQRPSDKPRR [P6V8-3NCSA3A5],no binding,–
RRPKGRGKRRREAAAPSDKPRR [AS-4],no binding,IC50 [3]: 17.8 nM; IC50 [4]: 300 nM
VEGF165 (protein) APMAEGGGQNHHEVVKFMDVYQRSYCHPIETLVDIFQEYPDEIEYIFKPSCVPLMRCGGCCNDEGLECVPTEESNITMQIMRIKPHQGQHIGEMSFLQHNKCECRPKKDRARQENPCGPCSERRKHLFVQDPQTCKCSCKNTDSRCKARQLELNERTCRCDKPRR,–,IC50 [5]: 0.582 nM; IC50 [3]: 0.158 nM; Kd [6]: 2.09 nM
RRPKGRGKRRREKQRPDAVPRR [P6P7],–,IC50 [7]: 1170 nM
"CKGRGKRCREKQRPSDKPRR (disulfide 1-8; also: capped amino and carboxyl termini, chemistry of caps not given here) [(cap)P6V8-3NCS1-7CC]",no binding,–
AGRGKARREKQRPSDKPRR [P6V8-3NCSA1A6],no binding,–
RRPAAAGKRRREKQRPSDKPRR [AS-1],no binding,–
"KGRGKRRREKQRPSDKPRR (also: (cap), group not given here) [(cap)P6V8-3NCS]",no binding,–
CAGRGKRCREKQRPSDKPRR (disulfide 1-8) [P6V8-3NCS1-7CCA1],no binding,–
CKGRGARCREKQRPSDKPRR (disulfide 1-8) [P6V8-3NCS1-7CCA5],no binding,–
KGAGKARREKQRPSDKPRR [P6V8-3NCSA3A6],no binding,–
RRPKGRGKRRREKQRP [P6],–,IC50 [7]: 12200 nM
KGRGKRRREKQRPCDKPRR [P6V8-3N],–,IC50 [3]: 254 nM
RPCDKPRR [V8],no binding,binding result [8]: no binding
"KGRGKRAAEAQAPSDKPRR [P6V8-3NCSA7,8,10,12]",no binding,–
VEGF121 (protein) APMAEGGGQNHHEVVKFMDVYQRSYCHPIETLVDIFQEYPDEIEYIFKPSCVPLMRCGGCCNDEGLECVPTEESNITMQIMRIKPHQGQHIGEMSFLQHNKCECRPKKDRARQEKCDKPRR,–,IC50 [9]: 0.312 nM; binding result [8]: no binding; binding result [2]: no binding
